B1: Growth/differentiation factor 5 (Homo sapiens), P43026 (parent)
chain: MRLPKLLTFLLWYLAWLDLEFICTVLGAPDLGQRPQGTRPGLAKAEAKERPPLARNVFRPGGHSYGGGATNANARAKGGTGQTGGLTQPKKDEPKKLPPRPGGPEPKPGHPPQTRQATARTVTPKGQLPGGKAPPKAGSVPSSFLLKKAREPGPPREPKEPFRPPPITPHEYMLSLYRTLSDADRKGGNSSVKLEAGLANTITSFIDKGQDDRGPVVRKQRYVFDISALEKDGLLGAELRILRKKPSDTAKPAAPGGGRAAQLKLSSCPSGRQPAALLDVRSVPGLDGSGWEVFDIWKLFRNFKNSAQLCLELEAWERGRAVDLRGLGFDRAARQVHEKALFLVFGRTKKRDLFFNEIKARSGQDDKTVYEYLFSQRRKRRAPLATRQGKRPSKNLKARCSRKALHVNFKDMGWDDWIIAPLEYEAFHCEGLCEFPLRSHLEPTNHAVIQTLMNSMDPESTPPTCCVPTRLSPISILFIDSANNVVYKQYEDMVVESCGCR

Variants of: B1
Conditions: with bmr1a_human BMPR1A

Variant | effect of a mutation on the interaction
MRLPKLLTFLLWYLAWLDLEFICTVLGAPDLGQRPQGTRPGLAKAEAKERPPLARNVFRPGGHSYGGGATNANARAKGGTGQTGGLTQPKKDEPKKLPPRPGGPEPKPGHPPQTRQATARTVTPKGQLPGGKAPPKAGSVPSSFLLKKAREPGPPREPKEPFRPPPITPHEYMLSLYRTLSDADRKGGNSSVKLEAGLANTITSFIDKGQDDRGPVVRKQRYVFDISALEKDGLLGAELRILRKKPSDTAKPAAPGGGRAAQLKLSSCPSGRQPAALLDVRSVPGLDGSGWEVFDIWKLFRNFKNSAQLCLELEAWERGRAVDLRGLGFDRAARQVHEKALFLVFGRTKKRDLFFNEIKARSGQDDKTVYEYLFSQRRKRRAPLATRQGKRPSKNLKARCSRKALHVNFKDMGWDDWIIAPLEYEAFHCEGLCEFPLLSHLEPTNHAVIQTLMNSMDPESTPPTCCVPTRLSPISILFIDSANNVVYKQYEDMVVESCGCR [R438L] | increasing interaction strength

Variants of: B1
Conditions: with bmr1b_human BMPR1B

Variant | effect of a mutation on the interaction
MRLPKLLTFLLWYLAWLDLEFICTVLGAPDLGQRPQGTRPGLAKAEAKERPPLARNVFRPGGHSYGGGATNANARAKGGTGQTGGLTQPKKDEPKKLPPRPGGPEPKPGHPPQTRQATARTVTPKGQLPGGKAPPKAGSVPSSFLLKKAREPGPPREPKEPFRPPPITPHEYMLSLYRTLSDADRKGGNSSVKLEAGLANTITSFIDKGQDDRGPVVRKQRYVFDISALEKDGLLGAELRILRKKPSDTAKPAAPGGGRAAQLKLSSCPSGRQPAALLDVRSVPGLDGSGWEVFDIWKLFRNFKNSAQLCLELEAWERGRAVDLRGLGFDRAARQVHEKALFLVFGRTKKRDLFFNEIKARSGQDDKTVYEYLFSQRRKRRAPLATRQGKRPSKNLKARCSRKALHVNFKDMGWDDWIIAPLEYEAFHCEGLCEFPLRSHPEPTNHAVIQTLMNSMDPESTPPTCCVPTRLSPISILFIDSANNVVYKQYEDMVVESCGCR [L441P] | decreasing interaction strength

Reference: IntAct's records for PubMed 16127465
